Data taken from article PMC5231900 (Molecular Biology of the Cell, 2017).

What was measured:
Assay in all cases: pull-down
[1] = molecular target: wild-type HOPS complex purified via Vps41-TAP (yeast, UniProt P38959;Q07468;P20795;P12868;Q03308;P27801)
[2] = molecular target: wild-type HOPS complex purified via Vps39-TAP (yeast, UniProt Q07468;P38959;P20795;P12868;Q03308;P27801)
[3] = molecular target: Vps41-Vps3-class C hybrid complex (yeast, UniProt P38959;P23643;P20795;P12868;Q03308;P27801)
[4] = molecular target: wild-type Vps39-Vps11 complex (yeast, UniProt Q07468;P12868)
wild-type Vps39-Vps11 complex, sequence (Q07468 whole entry, chain 1 of 2): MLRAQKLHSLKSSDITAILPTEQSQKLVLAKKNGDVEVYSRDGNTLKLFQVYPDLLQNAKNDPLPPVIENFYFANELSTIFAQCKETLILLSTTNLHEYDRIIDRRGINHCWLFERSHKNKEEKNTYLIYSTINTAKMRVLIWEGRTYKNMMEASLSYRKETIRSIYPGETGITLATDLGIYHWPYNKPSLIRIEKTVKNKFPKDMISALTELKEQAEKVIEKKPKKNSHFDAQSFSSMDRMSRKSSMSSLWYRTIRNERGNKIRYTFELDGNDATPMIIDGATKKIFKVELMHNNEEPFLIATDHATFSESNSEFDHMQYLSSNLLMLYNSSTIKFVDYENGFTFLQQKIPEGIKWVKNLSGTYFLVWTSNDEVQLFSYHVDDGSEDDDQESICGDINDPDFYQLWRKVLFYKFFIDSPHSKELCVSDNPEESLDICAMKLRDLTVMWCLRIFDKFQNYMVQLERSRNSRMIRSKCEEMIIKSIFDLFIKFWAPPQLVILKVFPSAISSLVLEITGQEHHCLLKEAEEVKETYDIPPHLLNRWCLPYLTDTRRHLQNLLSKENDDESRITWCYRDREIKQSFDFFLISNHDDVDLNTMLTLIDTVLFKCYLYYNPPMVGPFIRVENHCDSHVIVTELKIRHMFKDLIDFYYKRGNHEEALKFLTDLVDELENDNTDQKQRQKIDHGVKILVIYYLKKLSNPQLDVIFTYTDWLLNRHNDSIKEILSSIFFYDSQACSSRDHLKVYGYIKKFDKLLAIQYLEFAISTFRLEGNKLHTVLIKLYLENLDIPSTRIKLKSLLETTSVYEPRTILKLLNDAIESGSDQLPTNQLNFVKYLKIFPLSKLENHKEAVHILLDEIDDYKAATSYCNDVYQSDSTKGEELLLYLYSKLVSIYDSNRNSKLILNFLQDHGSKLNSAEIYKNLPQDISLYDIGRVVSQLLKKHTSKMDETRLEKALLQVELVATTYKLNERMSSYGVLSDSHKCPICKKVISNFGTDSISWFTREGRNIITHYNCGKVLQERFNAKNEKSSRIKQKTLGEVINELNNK
wild-type Vps39-Vps11 complex, sequence (P12868 whole entry, chain 2 of 2): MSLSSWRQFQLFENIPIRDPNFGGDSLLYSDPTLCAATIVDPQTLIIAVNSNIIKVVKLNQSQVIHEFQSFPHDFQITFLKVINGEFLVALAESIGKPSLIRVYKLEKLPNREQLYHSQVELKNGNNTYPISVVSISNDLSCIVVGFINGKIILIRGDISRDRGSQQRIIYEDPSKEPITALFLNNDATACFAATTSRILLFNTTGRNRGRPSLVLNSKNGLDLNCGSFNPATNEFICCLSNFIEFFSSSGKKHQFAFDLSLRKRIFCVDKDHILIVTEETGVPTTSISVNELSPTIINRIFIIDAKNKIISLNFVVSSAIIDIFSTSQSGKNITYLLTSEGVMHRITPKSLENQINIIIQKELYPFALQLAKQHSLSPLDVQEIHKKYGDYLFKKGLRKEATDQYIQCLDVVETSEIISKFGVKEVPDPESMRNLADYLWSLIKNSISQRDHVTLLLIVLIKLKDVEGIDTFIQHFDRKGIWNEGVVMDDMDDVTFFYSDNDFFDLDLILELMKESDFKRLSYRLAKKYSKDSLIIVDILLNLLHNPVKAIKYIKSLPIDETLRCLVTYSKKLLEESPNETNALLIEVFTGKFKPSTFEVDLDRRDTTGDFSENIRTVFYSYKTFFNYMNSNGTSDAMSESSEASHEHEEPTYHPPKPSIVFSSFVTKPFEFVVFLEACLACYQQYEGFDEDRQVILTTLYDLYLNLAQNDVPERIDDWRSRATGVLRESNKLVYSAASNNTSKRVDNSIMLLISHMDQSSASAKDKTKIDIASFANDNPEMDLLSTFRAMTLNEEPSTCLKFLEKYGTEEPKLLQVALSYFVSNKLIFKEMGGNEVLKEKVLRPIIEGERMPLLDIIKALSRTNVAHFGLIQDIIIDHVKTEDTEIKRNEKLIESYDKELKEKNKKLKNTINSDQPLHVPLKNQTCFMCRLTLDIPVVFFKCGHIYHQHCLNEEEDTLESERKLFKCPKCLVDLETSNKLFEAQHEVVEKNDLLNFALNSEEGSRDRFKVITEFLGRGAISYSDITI

Measured: binding result

B1: GST-Ypt7 (natural protein)
chain: MSSRKKNILKVIILGDSGVGKTSLMHRYVNDKYSQQYKATIGADFLTKEVTVDGDKVATMQVWDTAGQERFQSLGVAFYRGADCCVLVYDVTNASSFENIKSWRDEFLVHANVNSPETFPFVILGNKIDAEESKKIVSEKSAQELAKSLGDIPLFLTSAKNAINVDTAFEEIARSALQQNQADTEAFEDDYNDAINIRLDGENNSCSC
binds: [1] | [2] | [3] | [4]
